The source of these data is publication PMC7414852.

A word on the stoichiometry N: it is the number of molecules, sites or subunits per partner or assembly.

Experiment in all cases: cryo-EM structure
The target in test [1] is Trypsin-activated Vip3Aa16 toxin (cleaved at K198, both fragments kept together) (Bacillus thuringiensis).
In test [2] the target is Vip3Aa16 N-terminal trypsin fragment (domain I, to K198) (Bacillus thuringiensis).
In test [3] the target is Vip3Aa16 protoxin (Vegetative Insecticidal Protein 3Aa from Bacillus thuringiensis), residues 10-789 (Bacillus thuringiensis).

Consider “Trypsin-activated Vip3Aa16 toxin (cleaved at K198, both fragments kept together) (complex)”, for which, in test [1], the stoichiometry N is 4.

On to “Vip3Aa16 N-terminal trypsin fragment (domain I, to K198) (domain or fragment)”, for which the stoichiometry N in test [2] was determined as 4.

The substance “Vip3Aa16 protoxin (Vegetative Insecticidal Protein 3Aa from Bacillus thuringiensis), residues 10-789 (natural protein)” came in with a stoichiometry N in test [3] of 4.
